What all share (assay): ELISA; ELISA-like multiwell assay: wells coated overnight with 100 ng/well recombinant human integrin heterodimer in 100 mM sodium carbonate pH 9.5; blocked with FCS-containing or FCS-free blocker; purified CagL (2.5, 5, 10, 20 ng/well; 10 ng for the comparison of mutants) incubated 3 h, washed; bound CagL detected with anti-CagL antiserum AK271; values relative to wild type CagL set to 100% after background subtraction
(An ELISA detects its analyte on a solid surface through an enzyme-linked reagent.)

Assay [1] concerns the target recombinant human integrin α5β1 (human) (UniProt P08648).
In assay [2] the target is recombinant human integrin αvβ5 (human) (UniProt P06756).
Assay [3] addresses recombinant human integrin αvβ6 (human) (UniProt P06756).

The results in this text go back to article PMC5138618.

recombinant human integrin α5β1 (human), sequence (P08648 42-1049, chain 1 of 2): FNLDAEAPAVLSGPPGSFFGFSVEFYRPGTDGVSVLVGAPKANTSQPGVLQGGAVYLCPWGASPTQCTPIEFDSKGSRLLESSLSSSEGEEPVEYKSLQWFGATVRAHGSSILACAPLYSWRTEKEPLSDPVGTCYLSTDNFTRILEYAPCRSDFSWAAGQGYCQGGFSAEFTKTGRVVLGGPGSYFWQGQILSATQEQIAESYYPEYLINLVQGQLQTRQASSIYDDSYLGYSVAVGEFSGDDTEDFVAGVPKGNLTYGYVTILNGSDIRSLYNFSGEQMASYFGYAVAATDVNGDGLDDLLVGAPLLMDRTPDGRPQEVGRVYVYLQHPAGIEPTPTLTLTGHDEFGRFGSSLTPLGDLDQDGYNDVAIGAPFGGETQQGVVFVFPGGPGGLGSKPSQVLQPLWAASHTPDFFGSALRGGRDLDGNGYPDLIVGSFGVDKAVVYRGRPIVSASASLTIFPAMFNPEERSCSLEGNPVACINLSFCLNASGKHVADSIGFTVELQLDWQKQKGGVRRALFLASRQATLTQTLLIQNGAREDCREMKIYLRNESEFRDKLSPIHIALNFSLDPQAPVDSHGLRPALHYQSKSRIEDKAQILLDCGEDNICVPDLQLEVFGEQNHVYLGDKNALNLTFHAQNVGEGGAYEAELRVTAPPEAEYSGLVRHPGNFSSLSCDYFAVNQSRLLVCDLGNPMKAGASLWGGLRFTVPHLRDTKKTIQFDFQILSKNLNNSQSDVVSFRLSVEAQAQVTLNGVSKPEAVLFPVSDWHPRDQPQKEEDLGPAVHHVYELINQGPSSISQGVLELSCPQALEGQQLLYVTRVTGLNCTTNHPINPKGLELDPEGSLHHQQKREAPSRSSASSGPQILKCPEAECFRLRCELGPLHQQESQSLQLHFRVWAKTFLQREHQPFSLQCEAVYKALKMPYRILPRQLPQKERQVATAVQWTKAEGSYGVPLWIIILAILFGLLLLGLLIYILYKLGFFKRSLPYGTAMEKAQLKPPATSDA
recombinant human integrin α5β1 (human), sequence (P05556 21-728, chain 2 of 2, further chain): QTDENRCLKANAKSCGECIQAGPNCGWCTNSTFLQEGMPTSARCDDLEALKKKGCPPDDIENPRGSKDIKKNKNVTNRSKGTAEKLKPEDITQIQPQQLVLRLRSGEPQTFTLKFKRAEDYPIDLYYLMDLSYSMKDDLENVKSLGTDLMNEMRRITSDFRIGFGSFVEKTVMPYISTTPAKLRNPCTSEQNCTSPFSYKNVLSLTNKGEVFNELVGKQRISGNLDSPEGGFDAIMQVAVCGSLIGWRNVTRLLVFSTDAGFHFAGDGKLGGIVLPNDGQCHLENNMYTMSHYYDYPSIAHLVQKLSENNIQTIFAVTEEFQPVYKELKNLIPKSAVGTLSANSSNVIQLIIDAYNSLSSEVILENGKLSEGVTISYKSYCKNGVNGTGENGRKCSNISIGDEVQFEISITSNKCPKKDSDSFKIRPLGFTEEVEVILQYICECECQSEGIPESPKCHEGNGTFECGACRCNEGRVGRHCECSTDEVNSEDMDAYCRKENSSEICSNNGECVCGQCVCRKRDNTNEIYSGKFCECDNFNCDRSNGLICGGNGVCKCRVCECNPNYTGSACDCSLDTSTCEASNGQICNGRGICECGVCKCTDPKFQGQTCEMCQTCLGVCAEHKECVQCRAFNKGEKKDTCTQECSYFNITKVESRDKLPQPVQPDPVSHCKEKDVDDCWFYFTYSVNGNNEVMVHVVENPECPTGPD
recombinant human integrin αvβ6 (human), sequence (P06756 31-1048, chain 1 of 2): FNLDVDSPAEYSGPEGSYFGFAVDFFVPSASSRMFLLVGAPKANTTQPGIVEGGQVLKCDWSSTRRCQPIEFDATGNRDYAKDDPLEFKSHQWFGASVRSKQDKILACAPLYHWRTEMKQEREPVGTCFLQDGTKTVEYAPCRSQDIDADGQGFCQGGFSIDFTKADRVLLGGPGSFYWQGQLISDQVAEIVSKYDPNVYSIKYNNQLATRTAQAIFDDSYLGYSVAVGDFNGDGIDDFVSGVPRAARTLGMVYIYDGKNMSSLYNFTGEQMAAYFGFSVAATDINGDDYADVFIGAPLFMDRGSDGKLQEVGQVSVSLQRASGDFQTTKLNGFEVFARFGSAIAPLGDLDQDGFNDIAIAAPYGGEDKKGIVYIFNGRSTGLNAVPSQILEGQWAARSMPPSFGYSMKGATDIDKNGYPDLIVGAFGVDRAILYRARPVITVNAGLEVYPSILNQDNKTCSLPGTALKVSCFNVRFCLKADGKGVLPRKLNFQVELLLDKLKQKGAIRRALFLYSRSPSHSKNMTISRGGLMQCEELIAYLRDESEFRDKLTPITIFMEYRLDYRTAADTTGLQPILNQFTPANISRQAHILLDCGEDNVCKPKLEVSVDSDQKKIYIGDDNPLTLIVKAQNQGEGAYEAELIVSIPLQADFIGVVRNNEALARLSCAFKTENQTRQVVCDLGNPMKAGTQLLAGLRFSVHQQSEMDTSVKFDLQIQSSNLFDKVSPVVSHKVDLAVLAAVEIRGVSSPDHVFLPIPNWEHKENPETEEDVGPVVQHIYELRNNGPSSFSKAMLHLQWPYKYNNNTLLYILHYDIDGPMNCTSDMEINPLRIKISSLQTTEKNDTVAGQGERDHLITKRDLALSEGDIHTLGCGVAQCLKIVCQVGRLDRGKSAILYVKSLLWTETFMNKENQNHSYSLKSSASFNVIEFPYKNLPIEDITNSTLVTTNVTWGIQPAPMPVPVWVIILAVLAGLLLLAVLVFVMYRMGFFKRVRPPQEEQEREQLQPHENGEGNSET
recombinant human integrin αvβ6 (human), sequence (P18564 22-709, chain 2 of 2, further chain): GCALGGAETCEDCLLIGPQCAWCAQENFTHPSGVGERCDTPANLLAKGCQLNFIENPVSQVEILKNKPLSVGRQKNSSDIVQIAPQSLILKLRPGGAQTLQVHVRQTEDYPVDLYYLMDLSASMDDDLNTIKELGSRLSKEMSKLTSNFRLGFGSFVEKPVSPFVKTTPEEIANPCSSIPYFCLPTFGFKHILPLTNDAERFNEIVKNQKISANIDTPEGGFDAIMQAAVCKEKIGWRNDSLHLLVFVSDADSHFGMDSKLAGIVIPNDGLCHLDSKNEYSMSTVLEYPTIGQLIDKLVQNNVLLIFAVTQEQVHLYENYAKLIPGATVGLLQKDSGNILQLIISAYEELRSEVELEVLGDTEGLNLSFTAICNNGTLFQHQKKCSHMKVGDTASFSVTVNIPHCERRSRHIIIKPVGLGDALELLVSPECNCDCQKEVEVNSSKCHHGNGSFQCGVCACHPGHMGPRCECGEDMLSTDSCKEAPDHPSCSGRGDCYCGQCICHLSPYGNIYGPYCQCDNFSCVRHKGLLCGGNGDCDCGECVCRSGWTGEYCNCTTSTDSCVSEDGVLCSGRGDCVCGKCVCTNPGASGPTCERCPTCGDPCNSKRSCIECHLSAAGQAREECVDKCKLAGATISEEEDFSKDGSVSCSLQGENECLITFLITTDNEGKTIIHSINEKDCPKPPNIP
recombinant human integrin αvβ5 (human), sequence (P06756 31-1048, chain 1 of 2): as the sequence (P06756 31-1048, chain 1 of 2) above
recombinant human integrin αvβ5 (human), sequence (P18084 24-719, chain 2 of 2, further chain): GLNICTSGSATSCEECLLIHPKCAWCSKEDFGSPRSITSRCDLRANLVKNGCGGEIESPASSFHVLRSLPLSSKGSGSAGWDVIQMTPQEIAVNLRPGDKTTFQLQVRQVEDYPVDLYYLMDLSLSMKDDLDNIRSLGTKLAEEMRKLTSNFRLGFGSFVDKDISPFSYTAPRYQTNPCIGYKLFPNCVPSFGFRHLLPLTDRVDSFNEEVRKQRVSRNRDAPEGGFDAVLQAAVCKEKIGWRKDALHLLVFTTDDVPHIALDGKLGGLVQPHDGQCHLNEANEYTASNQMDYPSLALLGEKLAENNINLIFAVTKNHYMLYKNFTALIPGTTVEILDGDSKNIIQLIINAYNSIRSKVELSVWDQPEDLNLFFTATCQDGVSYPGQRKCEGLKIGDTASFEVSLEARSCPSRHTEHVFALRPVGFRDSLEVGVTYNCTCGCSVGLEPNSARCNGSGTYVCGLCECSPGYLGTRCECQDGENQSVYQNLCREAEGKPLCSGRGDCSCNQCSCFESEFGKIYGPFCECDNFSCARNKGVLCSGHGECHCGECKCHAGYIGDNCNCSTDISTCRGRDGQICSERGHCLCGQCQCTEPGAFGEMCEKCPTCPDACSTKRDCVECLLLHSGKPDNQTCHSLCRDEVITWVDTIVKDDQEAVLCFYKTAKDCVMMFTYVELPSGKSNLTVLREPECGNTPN

B1: CagL^ΔRGD motif variant, recombinant (natural protein)
chain: EDITSGLKQLDSTYQETNQQVLKNLDEIFSTTSPSANNEMGEEDALNIKKAAIALLALLKANFEANELFFISEDVIFKTYMSSPELLLTYMKINPLDQNTAEQQCGISDKVLVLYCEGKLKIEQEKQNIRERLETSLKAYQSNIGGTASLITASQTLVESLKNKNFIKGIRKLMLAHNKVFLNYLEELDALERSLEQSKRQYLQERQSSKIIVK
For the molecule B1, the binding in percent of wild type CagL in assay [1], in assay [2] and in assay [3] was less than 50% throughout.

B2: CagL^ΔRGDΔTASLI double motif deletion, recombinant (natural protein)
chain: EDITSGLKQLDSTYQETNQQVLKNLDEIFSTTSPSANNEMGEEDALNIKKAAIALLALLKANFEANELFFISEDVIFKTYMSSPELLLTYMKINPLDQNTAEQQCGISDKVLVLYCEGKLKIEQEKQNIRERLETSLKAYQSNIGGTASQTLVESLKNKNFIKGIRKLMLAHNKVFLNYLEELDALERSLEQSKRQYLQERQSSKIIVK
As to B2, the binding in percent of wild type CagL in assay [1], in assay [2] and in assay [3] was less than 36% in each case.
